These are literature values, as cited in publication PMC3496018.

In series [1] the target is Syndecan-4 (Homo sapiens) (UniProt P31431).
A further series concerns the target LRP6 (Homo sapiens) (UniProt O75581).
UniProt O75581, sequence (O75581 20-1370): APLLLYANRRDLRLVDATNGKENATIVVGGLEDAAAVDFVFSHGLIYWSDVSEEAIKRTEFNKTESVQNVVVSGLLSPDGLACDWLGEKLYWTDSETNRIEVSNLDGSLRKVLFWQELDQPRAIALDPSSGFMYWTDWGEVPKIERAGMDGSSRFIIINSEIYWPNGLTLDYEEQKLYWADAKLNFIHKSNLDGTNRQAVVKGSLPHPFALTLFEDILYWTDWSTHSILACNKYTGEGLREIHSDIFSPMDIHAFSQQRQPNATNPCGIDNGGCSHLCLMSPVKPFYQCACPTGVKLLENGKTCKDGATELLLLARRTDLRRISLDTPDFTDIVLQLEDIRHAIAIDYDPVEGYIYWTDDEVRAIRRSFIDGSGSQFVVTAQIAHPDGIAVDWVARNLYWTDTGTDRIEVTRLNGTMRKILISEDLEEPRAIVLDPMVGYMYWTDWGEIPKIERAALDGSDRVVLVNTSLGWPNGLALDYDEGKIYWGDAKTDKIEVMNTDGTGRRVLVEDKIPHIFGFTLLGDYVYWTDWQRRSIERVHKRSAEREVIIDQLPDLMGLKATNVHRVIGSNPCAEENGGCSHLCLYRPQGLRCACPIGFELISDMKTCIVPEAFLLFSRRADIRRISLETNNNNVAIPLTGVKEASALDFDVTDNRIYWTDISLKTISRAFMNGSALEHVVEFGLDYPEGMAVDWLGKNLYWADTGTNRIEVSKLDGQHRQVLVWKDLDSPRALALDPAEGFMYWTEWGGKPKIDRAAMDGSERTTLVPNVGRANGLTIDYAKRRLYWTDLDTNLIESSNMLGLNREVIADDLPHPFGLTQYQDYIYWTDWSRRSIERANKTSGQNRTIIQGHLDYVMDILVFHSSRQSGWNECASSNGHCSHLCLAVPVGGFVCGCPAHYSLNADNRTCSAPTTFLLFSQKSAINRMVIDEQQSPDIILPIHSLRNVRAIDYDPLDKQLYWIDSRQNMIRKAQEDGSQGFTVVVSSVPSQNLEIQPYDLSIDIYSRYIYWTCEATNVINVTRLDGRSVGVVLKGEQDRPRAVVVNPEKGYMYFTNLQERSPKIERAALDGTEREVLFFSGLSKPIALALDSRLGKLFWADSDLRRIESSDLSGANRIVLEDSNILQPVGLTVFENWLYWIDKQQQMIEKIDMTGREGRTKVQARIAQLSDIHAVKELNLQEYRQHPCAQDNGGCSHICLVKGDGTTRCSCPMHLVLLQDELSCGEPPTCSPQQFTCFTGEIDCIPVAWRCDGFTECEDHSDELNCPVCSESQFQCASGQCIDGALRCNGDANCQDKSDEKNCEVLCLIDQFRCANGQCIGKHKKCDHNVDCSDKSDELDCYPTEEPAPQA

UniProt P31431, sequence (P31431 19-145): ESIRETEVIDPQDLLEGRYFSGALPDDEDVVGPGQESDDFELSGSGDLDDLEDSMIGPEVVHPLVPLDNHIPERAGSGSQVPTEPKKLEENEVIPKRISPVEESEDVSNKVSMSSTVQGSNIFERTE

For the substance RSPO3 (from UniProt Q9BXY4), in series [1], the Kd is 0.88 nM.

With RSPO1 (from UniProt Q2MKA7), the Kd with LRP6 (Homo sapiens) was 1.2 nM.
